The text below walks through data of publication PMC6853222.

The target in assay [1] is GII.11 porNoV VA34 P protein (GII.11 porcine norovirus VA34). Briefly: crystal structure; VA34 P protein, native; hanging drop vapor diffusion, 100 mM Tris pH 8.0, 16% PEG 3350, 6% tacsimate pH 8.0, 20 °C.
Assay [2] concerns the target GII.3 huNoV TV24 P protein (GII.3 human norovirus TV24). Briefly: crystal structure; TV24 P protein, native and with A tetrasaccharide; hanging drop vapor diffusion, 9.6% PEG 3350, 160 mM ammonium citrate tribasic pH 7.0, 20 mM tri-sodium citrate pH 5.6, 500 mM 1,6-hexanediol, 20 °C; homodimers in the asymmetric unit.

For orientation: stoichiometry N means a count of units in the complex or per binding partner. In the case of “GII.11 porNoV VA34 P protein (domain or fragment)”, the stoichiometry N in assay [1] was 2.

In assay [2], “GII.3 huNoV TV24 P protein (domain or fragment)” gave a stoichiometry N of 2.
